Test [1] concerns the target Mouse IgG2a protein (AcroBiosystems Cat# IGA-M5207) (mouse) [IgG part: P01863]. Description: indirect ELISA, hybridoma supernatant, coated antigen B at 1 µg/ml.
In test [2] the target is recombinant human CD70 tagged with mouse IgG2a Fc (AcroBiosystems Cat#CDL-H525a) (human; mouse) (UniProt P32970). Description: indirect ELISA, hybridoma supernatant, coated antigen A at 1 µg/ml. For orientation: In an ELISA, binding on a coated surface is turned into a signal by an enzyme label.
Sequence of recombinant human CD70 tagged with mouse IgG2a Fc (AcroBiosystems Cat#CDL-H525a) (human; mouse) (P32970 39-193): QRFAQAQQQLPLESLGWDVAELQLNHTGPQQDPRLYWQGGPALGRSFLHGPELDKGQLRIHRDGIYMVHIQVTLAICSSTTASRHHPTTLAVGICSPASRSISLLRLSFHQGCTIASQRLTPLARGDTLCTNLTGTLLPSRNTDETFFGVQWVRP

Sequence of Mouse IgG2a protein (AcroBiosystems Cat# IGA-M5207) (mouse) [IgG part: P01863] (P01863 98-330): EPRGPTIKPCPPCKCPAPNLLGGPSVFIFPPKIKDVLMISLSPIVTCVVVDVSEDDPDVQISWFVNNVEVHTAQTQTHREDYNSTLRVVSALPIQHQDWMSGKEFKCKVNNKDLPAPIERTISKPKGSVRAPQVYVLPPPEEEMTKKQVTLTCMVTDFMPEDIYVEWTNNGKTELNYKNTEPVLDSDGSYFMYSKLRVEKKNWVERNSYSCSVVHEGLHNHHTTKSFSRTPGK

B1: 11E12E8 (antibody, IgG1, V domains shown)
VH: DVQLVESGGGLVQPGGSRKLSCAASGFTFSRFGMNWVRQAPEKGLEWVAYISSGSGDIYYADTVKGRFTISRDNPKNTLFLQMTSLRSEDTAMYYCAVTWFAYWGQGTLVTVSA
VL: QAVVTQEPALTTSPGETVTLTCRSSTGAVTTSNYANWVQEKPDHLFTGLIGGTNNRAPGVPARFSGSLIGDKAALTITGAQTEDEAIYFCVLWYSNHFIFGSGTKVTVL
As to B1, the OD 450 in test [1] is 0.107 OD 450; in test [2] it was 1.01 OD 450.

B2: 18F8A8 (antibody, IgG1, V domains shown)
VH: QVTLKESGPGILQPSQTLSLTCSFSGFSLSTSNMGVAWIRQPLGKGLEWLLYILWNDTKYYNPALKSRLSISKDTYNNQVFLKIVNVDTADTATYYCARIRRDYALDYWGQGTSVTVSS
VL: DIVMSQSPSSLAVSVGEKVTMNCKSSQSLLYSNNQKNYLAWYQQKPGQSPKLLIYWASTRESGVPDRFTGSGSGTDFTLTISSVKAEDLAVYYCQQYYIYPLAFGGGTKLEIK
Regarding B2, the OD 450 in test [1] came out at 0.146 OD 450; in test [2], 1.97 OD 450.

B3: 19H7E4 (antibody, IgG1, V domains shown)
VH: QVTLKESGPGILQPSQTLSLTCSFSGFSLSTSNVGVGWIRQPSGKGLEWLLHILWNDGKYYNPALKSRLTISKDTSTNQVFLKIADVDTADSATYYCARLRRDYGMDYWGQGTSVTVSS
VL: DIVMSQSPSSLAVSVGEKVTMSCKSSQSLLYSYNQKNYLAWYQQKPGQSPKLLIYWASTRESGVPDRFTGSGSGTDFTLTISSVKAEDLAVYYCQQYYTYPYAFGGGTKLEIK
B3: the values for the OD 450 in test [1] and in test [2] were 0.134 OD 450 and 1.85 OD 450, respectively.

B4: 3H11D12E7 (antibody, V domains shown)
VH: QIQLVQSGPELKKPGETVKISCKASGYTFTDYSMHWVKQAPGKGLKWMGWINTETGEPTYADDFKGRFAFSLETSASTAYLQINNLKNDDTATYFCARSFYRYDWYFDVWGAGTTVTVSS
VL: QIVLTQSPAIMSASPGEKVTITCSASSSVSFMHWFQQKPGTSPKLWIYSTSNLASGVPARFSGSGSGTSYSLTISRMEAEDAATYYCQQRTSFPPTFGGGTNLEIK
On to B4, for which the results for the OD 450 in test [1] and in test [2] were 0.115 OD 450 and 1.87 OD 450, respectively.

B5: 4E6G9 (antibody, V domains shown)
VH: QIQLVQSGPELKKAGETVKISCKASGYTFAAYSMHWVKQAPGKGLKWMGWINTETGEPTYADDFKGRFAFSLETSASTAYLQINNLKNEDTATYFCTRDDYDGGRFSYWYFAVWGAGTTVTVSS
VL: DIQMTQSPSSLSASLGGKVTITCKASQDINKYIAWYQHRPGKGPRLLIRYTSTLQPGIPSRFSGSGSGRDYSFSINNLEPEDIATYYCLQYDNLLTFGGGTKLEIK
As for B5, the results for the OD 450 in test [1] and in test [2] were 0.121 OD 450 and 2.51 OD 450, respectively.

B6: 16D7C8 (antibody, IgG3, V domains shown)
VH: QVQLQQSGPELVKPGASVRISCKASGYTFTSFYIHWVKQRPGQGLEWIGWISPINININYNEKFKGKATLTADKSSSTVYMQLSSLTSEDSAVYFCEGTSENFDVWGAGTTVTVSS
VL: DVLMTQIPLSLPVSLGDQASISCRSTQNIVHSNGNTYLEWYLQKPGQSPKLLIYKVSNRFSGVPDRFRGSGSGTEFTLKITRVEADDLGVYYCFQGSHVPFTFGAGTKLELK
B6: the OD 450 in test [1] was determined as 0.154 OD 450; in test [2] it was 2.12 OD 450.
